Reference: article PMC3629964

Target: NH2-terminal-PEGylated HZ-TRAIL monomer (human) (UniProt P50591)
Assay: SEC + other: quantitative Western blot

stoichiometry N: 2
Substance: 6xHis-ILZ-hTRAIL(114-281) (from UniProt P50591 114-281) (ligand)
